Results on 8 molecules are retold here after US8247535B2, “Directed evolution of GRG31 EPSP synthase enzyme” (Athenix Corp., priority 2008, dated 2012).

Positions count from the first letter of the chain named.

Data set [1] relates to GRG31 EPSP synthase. Description: Extract prescreens of library clones at a few glyphosate and PEP concentrations. Format: biochemical. The conditions noted are these: extracts; for activity in glyphosate prescreen: 0, 1, and 2 mM glyphosate, among 31 resistant clones. The method, then: Library 1 was cloned into pAX3625 and 130,000 clones were plated onto plates containing 50 mM glyphosate. […] Extracts were prepared and assessed for glyphosate resistance by assaying activity in the presence of a small number of glyphosate concentrations (0, 1, and 2 mM glyphosate).
Extracts from these six clones were assayed for activity at a range of PEP concentrations (0, 20, 50, and 100 μM PEP).
One hundred and fifteen thousand (115,000) clones were plated onto plates containing 50 mM glyphosate and 384 glyphosate resistant clones were picked for sequencing. […] A Ki assessment of the unique clones was carried out by testing activity at 0 and 0.2 mM glyphosate. […] An assessment of the Km of protein encoded by these nine clones was performed by comparing activity at 0, 20, and 50 μM PEP.

Data set [2] has as its target GRG31 EPSP synthase. Description: Kinetic analysis of GRG31 variants (Ki for glyphosate, Km for PEP, Vmax). The conditions noted are these: for Ki: Ki for glyphosate, calculated from plot of Km(app) vs. glyphosate concentration; for Km: Km for PEP; for Vmax: unit not given. The class given is biochemical. More on the design: Vmax: unit not given here. The method, then:
GRG31 variants L3P2b11, L3P2c11 and L4e11, and L5e3 were characterized by enzymatic assays as described herein, and compared to the native GRG31 enzyme. For each enzyme the apparent Km (Km(app)) was determined at each of several glyphosate concentrations, and a plot of Km(app) vs. glyphosate concentration was used to calculate the Ki for each enzyme. The thermostability for each enzyme was assessed by incubating the enzyme at 37° C. for 16 hours, and then quantifying the enzymatic activity remaining (as Vmax) vs. control enzyme that was incubated at 4° C.

B1: GRG31pm3a11: GRG31 Q-loop library 1 variant, SEQ ID NO:7 (protein)
chain: MNQQVITLTHPSKKIQGTVQLTGSKSESNRALIIQSLSKGQVEIANLSEAADTVTLNRVLQIASDPKPGFNTIDCGNAGTSVRFLTGFLNLVKGNFILTGTERMQQRPIGILVDAMKEIGADIHYDKKVGYPPLKIEGGLFQEKDRVKIKGNISSQYISALLLIAPALKKGLTLEIEGELTSRPYVSMTLDMLKSVGIQHEWKNNAIKIAPQAFEKQTIYVEPDWSAASYWYAIAALADANASIVLPGLRKNSLQGDIAIISIMEHFGVQSSFESDGLHLNKKVIGSDVSLFNFKECPDLAQTVVVVAAALKRDVSFTGLETLKIKETDRIAALQKEIAKFGAELIEDGDTYHLKTAQVYQPEEVTFDTYEDHRMAMAFAPLALVFDQIKIAEPQVVEKSYPDFWNHLQAQAFVIE
modifications: GRG31 variant (clone GRG31pm3a11)
Take B1: the “activity in glyphosate prescreen” value in the data set on GRG31 EPSP synthase [1] is on record as “best activity”. For the same molecule, in the data set with GRG31 EPSP synthase [1] (0, 20, 50, and 100 μM PEP, among six clones), the “activity at low PEP concentrations” value was “best activity at low PEP concentrations”.

B2: L3P2c11 + 6e7: GRG31 variant Y88→F; E215→K, SEQ ID NO:21 (protein)
chain: B1 chain with C75I, N77P, S81A, V82M, G87A, E215K
modifications: GRG31 variant (L3P2c11+6e7)
Take B2: on GRG31 EPSP synthase [2], the Ki is 416 µM; the Km (in general, the substrate concentration at which the rate is half of its maximum) worked out at 8.6 µM; the Vmax came out at 23.5. In the data set with GRG31 EPSP synthase [2] (relative to GRG31(L3P2c11), in words), the “Vmax improvement over the GRG31(L3P2c11) protein” value is “about four to five-fold”. Besides, in the data set on GRG31 EPSP synthase [2] (relative to GRG31, in words), the “Vmax relative to GRG31” value is “approximately equal to that of GRG31”, the “improvement in Ki for glyphosate relative to GRG31” value is reported as “more than four-fold” and the “improvement in Km for PEP relative to GRG31” value is reported as “approximately two-fold”.

B3: L3P2b11 + 6b2: GRG31 variant P77→Q; A81→S; M82→L; Y88→F; N95→S, A206→V, SEQ ID NO:26 (protein)
chain: B1 chain with C75I, N77Q, V82L, G87A, N95S, A206V
modifications: GRG31 variant (L3P2b11+6b2)
Consider B3, for which, on GRG31 EPSP synthase [2], the Ki is 628 µM, the Michaelis-Menten constant (Km) is 8 µM and the Vmax was 0.59.

B4: GRG31pm3a6: GRG31 Q-loop library 1 variant, SEQ ID NO:8 (protein)
chain: B1 chain with V82M, G87A, F88V
modifications: GRG31 variant (clone GRG31pm3a6)
Regarding B4, in the data set on GRG31 EPSP synthase [1], the “activity in glyphosate prescreen” value was “best activity”.

B5: L4e11: GRG31 variant I75→C; A78→S; Y88→H, SEQ ID NO:16 (protein)
chain: B1 chain with N77P, A78S, S81A, V82M, G87A, F88H
modifications: GRG31 variant (clone 4e11)
For the molecule B5, on GRG31 EPSP synthase [2], the Ki was 389 µM, the Km was determined as 12.4 µM and the Vmax is recorded as 3.5. Moreover, the “improvement in Ki for glyphosate relative to GRG31” value at GRG31 EPSP synthase [2] (relative to GRG31, in words) was “improved”.

B6: L3P2b11 + 6e7: GRG31 variant P77→Q; A81→S; M82→L; Y88→F; E215→K, SEQ ID NO:22 (protein)
chain: B1 chain with C75I, N77Q, V82L, G87A, E215K
modifications: GRG31 variant (L3P2b11+6e)
As for B6, on GRG31 EPSP synthase [2], the Ki was 1010 µM, the Km came to 10.3 µM and the Vmax turned out to be 0.86.

B7: L3P2b11 + triple EK: GRG31 variant P77→Q; A81→S; M82→L; Y88→F; N95→S, A206→V; E215→K, SEQ ID NO:24 (protein)
chain: B1 chain with C75I, N77Q, V82L, G87A, N95S, A206V, E215K
modifications: GRG31 variant (L3P2b11+triple EK)
Take B7: at GRG31 EPSP synthase [2], the Ki was 606 µM, the Km was found to be 12.3 µM and the Vmax stood at 0.72.

B8: GRG31pm3a8: GRG31 Q-loop library 1 variant, SEQ ID NO:9 (protein)
chain: B1 chain with N77P, S81G, G87A
modifications: GRG31 variant (clone GRG31pm3a8)
As to B8, the “activity in glyphosate prescreen” value in the data set on GRG31 EPSP synthase [1] was “best activity”.
